Assay results taken from the nanobody polyreactivity screen of Harvey et al. (2022).

Experiment: yeast display, Sf9 membrane polyspecificity reagent, FACS + sequencing; frameworks hold sequencing errors
Summary of the method: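 Polyreactivity labels are assigned by the sorting gate from which each nanobody was recovered. The gates were low and high (top ~1%), set on anti-HA fluorescence for expression and streptavidin fluorescence for reagent binding. Before sorting, galactose-induced (36–48 hours) yeast display cells were stained for 1 hour at 4 °C with 10% biotinylated, detergent-solubilized Sf9 membrane reagent.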

Row | Sequence | polyreactivity (PSR sort gate)
1 | QVQLVESGGGLVQAGGSLRLSCAASGRTFWRYAMGWYRQAPGKERELVARISSGGSTYYADSVKGRFTISRDNAKNTVYLQINSLKPEDTAVYYCAVLSRHRRVPWYRYNYWGQGTQVTVSS | low polyreactivity
2 | QVQLVESGGGLVQAGGSLRLSCAASGRTFWRYAMGWYRQAPGKERELVARISWRGGSTNYADSVKGRFTISRDNAKITVYVQMNSLKAEDTAVYYCAADNSRYFLTGYDYWGQGTQVTVSS | low polyreactivity
3 | QVQLVESGGGLVQAGGSLRLSCAASGRTFWSNAMGWYIQAPGKERELVAVIYTTTGNTYYADSVKGRFSISRDYAKNTVYLQMNSLKPEDTAVYYCNTRSGAFFLSKPYDYWGQGTQVTVSW | low polyreactivity
4 | QVQLVESGGGLVQAGGSLRLSCAASGRTFWSNAMGWYRQAPGKERELVADITLSGGRTYYADSVKGRFTISRDNAKNTVYLHMNILKPEDTAVYYCAASATPSGVGMDYWGQGTQVTVSS | low polyreactivity
5 | QVQLVESGGGLVQAGGSLRLSCAASGRTFWSNAMGWYRQAPGKERELVATISSGGGNTYYADSVKGRFTISRDNAKNTVYLQLNSLKPEDTAVYYCAATKYRWTYAASFGYWGQGTQVTVSS | high polyreactivity
6 | QVQLVESGGGLVQAGGSLRLSCAASGRTFWSNGMGWYRQAPGKERELVASISTSGGRTYYADSVKGRFTISRDNAKNTVYLQMNSLKPEDSAVYYCAARTVYRGRAYDYWGQGTQVTVSS | high polyreactivity
7 | QVQLVESGGGLVQAGGSLRLSCAASGRTFWSYAMGWYRQAPGKERELVAAITSSGGTTNYADSVKGRFTISRDNAKNTVYLQMNSLKPEDTAVYYCAAYSWYFGSRYDYWGQGTQVTVSS | low polyreactivity
8 | QVQLVESGGGLVQAGGSLRLSCAASGRTFWTNAMGWYRQAPGKERELVAAISWTTGSTNYADSVKGRFTISRDNAKNTVYLQMNSLKPEDTAVYYCAAQTYCTFHTYYYWGQGTQVTVSS | low polyreactivity
9 | QVQLVESGGGLVQAGGSLRLSCAASGRTFWVYAMGWYRQAPGKERELVAGISWDDGSTDYADSVKGRFTISRDNAKNTVYLQMNSLKPEDTAVYYCNAGEYYKGYYYWGQGTQVTVSS | low polyreactivity
10 | QVQLVESGGGLVQAGGSLRLSCAASGRTFWVYAMGWYRQAPGKERELVASISWSVGSTYYADSVKGRFTISRDNAKNTVYLQMNSLKPEDTAVYYCNKTTLLTVEYDYWGQGSQVTVSS | low polyreactivity
11 | QVQLVESGGGLVQAGGSLRLSCAASGRTFWWNAMAWYTQAPGKERELVAVISKRGGTTYYADSVKGRFTNSRDNAKNTVYLPMNSLKPEDTAVYVFAADQQSHYGYWGQGTQVTVSS | high polyreactivity
12 | QVQLVESGGGLVQAGGSLRLSCAASGRTFWWYAMGWYRQAPGKERELVAAITWSTGITFYADSVKGRFTISRDNAKNTVYLQMNILKPEDTAVYYCAADTGTFFGGFDYWGQGTQVTVSS | high polyreactivity
13 | QVQLVESGGGLVQAGGSLRLSCAASGRTFWWYAMGWYRQAPGKERELVADINGSGGSTYYADSVKGRFTISRDNAKHTVYLQMNSLKPEDTAVYYCAADYYRYIHSVVYSIYDYWGQGTQVTVSS | low polyreactivity
14 | QVQLVESGGGLVQAGGSLRLSCAASGRTFWWYAMGWYRQEPGKERELVAAITWSGGSTYYADSVKGRFTISRDNAKNTVYLQMNSLKPEDTAVYYCAAYVHNKYDYWGQGTQVTVSS | low polyreactivity
15 | QVQLVESGGGLVQAGGSLRLSCAASGRTFWYYAMGGYRQAPGKERELVAYADSVKGRFTISRDNAKNTVYLQMNSLKPEDTAVYYCAVGPVVWFSSSLYYTDYYYWGQGTQVTVSS | low polyreactivity
16 | QVQLVESGGGLVQAGGSLRLSCAASGRTFWYYAMGWNRQAPGKERELVAAITRGTSTYADSVKGRFTISRDNAKNTVYLQMNSLKPEDTAVFYCAADTWVTRNSRYDYWGQGTQVTVSS | high polyreactivity
17 | QVQLVESGGGLVQAGGSLRLSCAASGRTFWYYAMGWYRQAPGKEREFVAAISWSGGSTYYADSVKGRFTISRDNAKNTVYLQMNTLKPEDSAVYYCAASPVWWYDYWGQGTQVTVSS | low polyreactivity
18 | QVQLVESGGGLVQAGGSLRLSCAASGRTFWYYTMGWYRQAPGKERELVAAISSGGRTNYADSVKGRFTISRDNAKITVYLQMNSLKPEDTAVYYCATSRYYKYVERDYWGQGTQVTVSS | high polyreactivity
19 | QVQLVESGGGLVQAGGSLRLSCAASGRTFWYYTMGWYRQAPGKERELVAANTSVGSTYYADSVKGRFTISRDNAKNTVYLQMNSLKPEDTAVYYCATLYSYTHQSFDHWGQGTQVTVSS | high polyreactivity
20 | QVQLVESGGGLVQAGGSLRLSCAASGRTFWYYTMGWYRQAPGKERELVASITYRGGSTYYADSVKGRFTISRDNAKNNVYLQMNSLKPEDTAVYYCNARYKRYSYDYWGQGTQVTVSS | high polyreactivity
21 | QVQLVESGGGLVQAGGSLRLSCAASGRTFYANAMGWSRQAPGRERELVAAISTGGDGTYYADSVKGRFTISRDYAKITVYLQMNSLKPEDTAVYDCAVRHRASGILYYYWGQGTQVTVSS | low polyreactivity
22 | QVQLVESGGGLVQAGGSLRLSCAASGRTFYANAMGWYRQAPGKERELVAAISSNGGSTYYADSVKGRFTISRDNAKNTVYLQMNSLKPEDTAVYYCAVVSRYKAWRKYDYWGQGTQVTVSS | high polyreactivity

Row | Sequence | polyreactivity (PSR sort gate)
23 | QVQLVESGGGLVQAGGSLRLSCAASGRTFYAYAMGWSRQAPGKERELVAAITSGASTYYADSVKGRFTISRDNAKNTVYLQMNSLKPEDTAVYYCAKRVRYYKPGYDYWGQGTQVTVSS | low polyreactivity
24 | QVQLVESGGGLVQAGGSLRLSCAASGRTFYAYAMGWYRQAPGKERELVAAIRISGTSTYYADSVKGRFTISRDNAKNTVYLQMNSLKPEDTAVYYCARYVKLSGYGFYYWGQGTQVTVSS | high polyreactivity
25 | QVQLVESGGGLVQAGGSLRLSCAASGRTFYAYAMGWYRQAPGKERELVAVITRSGGRTNYADSVKGRFTISRDNAKNTVYLQMNSLKPEDTAVYYCAARADWRQVSFYYWGQGTQVTVSS | high polyreactivity
26 | QVQLVESGGGLVQAGGSLRLSCAASGRTFYDNAMGWYRQAPGKERELVAAITKSGGRTYYADSVKGRFTISRDNAKNTVYLQMNSLKPEDTAVYYCAASWPNYLYEYWGQGTQVTVSS | high polyreactivity
27 | QVQLVESGGGLVQAGGSLRLSCAASGRTFYDYAMGWYREAPGKEMELVASIRGSDGSTYYADSVKGRFTISRDKAKNTVYLQMNSLKPEDTSVYYCAARGFYGTNGRVYITSYYYLGQGTQVTVSS | high polyreactivity
28 | QVQLVESGGGLVQAGGSLRLSCAASGRTFYDYAMGWYRQAPGKERELVAAITYSGGSTFYADSVKGRFTISRDNAKNTVYLQMNSLKPEDTAVYYCAAEVLLLVGAAEYDYWGQGTQVTVSS | low polyreactivity
29 | QVQLVESGGGLVQAGGSLRLSCAASGRTFYDYAMGWYRQAPGKESEFVAAITDRDASTSYADSVKGRFTISRDNAKNTVYLQMNSLKPEDTAVYYCAADQYWYKPYVGELYDYDYWGQGTQVTVSS | low polyreactivity
30 | QVQLVESGGGLVQAGGSLRLSCAASGRTFYDYARGWYRQGPGKERELVAAITSGGSTNYADSVKGRFTISRDNAKNTVYLQMNSLKPEDTAVYYCAADDCYVWGFDMNYWGQGTQVTVSS | high polyreactivity
31 | QVQLVESGGGLVQAGGSLRLSCAASGRTFYEYAMGWYRQAPGKERELVAGITSGGSTNYADSVKGRFTISRDNAKNTVYLQMNSLKPEDTAVYYCDASYWGYEYDYWGQGTQVTVSS | low polyreactivity
32 | QVQLVESGGGLVQAGGSLRLSCAASGRTFYFNAMGWYRQAPRKESELVAAISSGASTYYADSVKGRFTISRDNAKNTVNLQMISLKPEDTAVYYCAAEFWTQWSGYEYWGQGTQVTVSS | high polyreactivity
33 | QVQLVESGGGLVQAGGSLRLSCAASGRTFYFNTLGWERQAPGKERELVAAISSGVNTYYADSVKGRFTISRDNAKTTVYLQMNSLKPEDTAVYYCNADYIHTGDYLWYFLYDYWGQGTQVTVSS | high polyreactivity
34 | QVQLVESGGGLVQAGGSLRLSCAASGRTFYFYAMGWYRQAPGKERELVAAITSRVGRTYYADSVKGRFTISRDTAKNTVYLQMNSLKPEDTAVYDCAAEGVYRMGYWGQGTQVTVSS | high polyreactivity
35 | QVQLVESGGGLVQAGGSLRLSCAASGRTFYFYVMGWYRQAPGKERELVASITSGGSTNYADSVKGRFTISRDNAKNTVYLQMNSLKPEDTAVYYCAAALPASTSGTQPYDYWGQGTQVTVSS | low polyreactivity
36 | QVQLVESGGGLVQAGGSLRLSCAASGRTFYGNAMGWYRQAPGKERELVAAITSGGGSTRYADSVKGRFTISRDNAKNSVYLQMNSLKPEDTAVYYCAALYWYEYTYLEYDYWGQGTQVTVSS | high polyreactivity
37 | QVQLVESGGGLVQAGGSLRLSCAASGRTFYGNAMGWYRQAPGKERELVAAITSGGGSTRYADSVKGRFTISRDNAKNTVYLQMNSLKPEDTAVYYCNATLGNFGYRRYSGHTRYYYWGQGTQVTVSS | high polyreactivity
38 | QVQLVESGGGLVQAGGSLRLSCAASGRTFYGYAMGWYRQAPGKERELVAAISRRGGSTNYADSVKGRFTISRDNAQTTVYLQMNSLKPEDTAVYYCNKVVPHKPPTMDYWGQGTQVTVSS | high polyreactivity
39 | QVQLVESGGGLVQAGGSLRLSCAASGRTFYGYAMGWYRQAPGKERELVAGITFRGSSTYYADSVKGRFTISRDNAKNTVYLQMNSLKPEDTAVYYCNVPYGNSHVGYDYWGQGTQVTVSS | high polyreactivity
40 | QVQLVESGGGLVQAGGSLRLSCAASGRTFYGYAMGWYRQAPGKERELVASISRDGSTNYADSVKGRFTISRDNAKNTVYLQMNSLKPEDTAVYYCAGDIWYYRYPIYYYSYDYWGQGTQVTVSS | low polyreactivity
41 | QVQLVESGGGLVQAGGSLRLSCAASGRTFYGYTMGWYRQAPGKERELDAAIRTSGGSTYADSVKGRFTISRDNAKNTVYLQMNSLKPEDTAVYYCAAPRVVYYGTAPAYRYDYWGQGTQVTVSS | high polyreactivity
42 | QVQLVESGGGLVQAGGSLRLSCAASGRTFYIYAMGWYRQAPGKERELVAAITWRGGRTYYADSVKGRFTISRDNAKNTVYLQMNSLKPEDTAVYYCAARTGQGPLYNHWGQGTQVTVSS | high polyreactivity
43 | QVQLVESGGGLVQAGGSLRLSCAASGRTFYIYAMGWYRQAPGTERELVAAITGCGGSTYYADSVKGRFTISRDNAKNTVYLQMNSLKPEDTAVYYCAAGFYGDGYTQGYGYWGQGTQVTVSS | low polyreactivity
